Assay results as given in IntAct's records for PubMed 19277847.

B1: Junctophilin-2 (Mus musculus), Q9ET78 (parent)
chain: MSGGRFDFDDGGAYCGGWEGGKAHGHGLCTGPKGQGEYSGSWNFGFEVAGVYTWPSGNTFEGYWSQGKRHGLGIETKGRWLYKGEWTHGFKGRYGIRQSTNSGAKYEGTWNNGLQDGYGTETYADGGTYQGQFTNGMRHGYGVRQSVPYGMAVVVRSPLRTSLSSLRSEHSNGTVAPDSPAADGPMLPSPPVPRGGFALTLLATAEAARPQGLFTRGTLLGRLRRSESRTSLGSQRSRLSFLKSELSSGASDAASTGSLAEGAEGPDDAAAPFDADIDATTTETYMGEWKNDKRSGFGVSERSSGLRYEGEWLDNLRHGYGRTTLPDGHREEGKYRHNVLVKGTKRRVLPLKSSKVRQKVEHGVEGAQRAAAIARQKAEIAASRTSHAKAKAEAAEQAALAANQESNIARTLAKELAPDFYQPGPEYQKRRLLQEILENSESLLEPPERGLGTGLPERPRESPQLHERETPQPEGGPPSPAGTPPQPKRPRPGASKDGLLSPGSWNGEPGGEGSRPATPSDGAGRRSPARPASEHMAIEALQPPPAPSQEPEVAMYRGYHSYAVRTGPPEPPPLEDEQEPEPEPEPEVRRSDSAPPSPVSATVPEEEPPAPRSPVPAKQATLEPKPIVPKAEPKAKARKTEARGLSKAGAKKKGRKEVAQAKEAEVEVEEVPNTVLICMVILLNIGLAILFVHLLT
partner: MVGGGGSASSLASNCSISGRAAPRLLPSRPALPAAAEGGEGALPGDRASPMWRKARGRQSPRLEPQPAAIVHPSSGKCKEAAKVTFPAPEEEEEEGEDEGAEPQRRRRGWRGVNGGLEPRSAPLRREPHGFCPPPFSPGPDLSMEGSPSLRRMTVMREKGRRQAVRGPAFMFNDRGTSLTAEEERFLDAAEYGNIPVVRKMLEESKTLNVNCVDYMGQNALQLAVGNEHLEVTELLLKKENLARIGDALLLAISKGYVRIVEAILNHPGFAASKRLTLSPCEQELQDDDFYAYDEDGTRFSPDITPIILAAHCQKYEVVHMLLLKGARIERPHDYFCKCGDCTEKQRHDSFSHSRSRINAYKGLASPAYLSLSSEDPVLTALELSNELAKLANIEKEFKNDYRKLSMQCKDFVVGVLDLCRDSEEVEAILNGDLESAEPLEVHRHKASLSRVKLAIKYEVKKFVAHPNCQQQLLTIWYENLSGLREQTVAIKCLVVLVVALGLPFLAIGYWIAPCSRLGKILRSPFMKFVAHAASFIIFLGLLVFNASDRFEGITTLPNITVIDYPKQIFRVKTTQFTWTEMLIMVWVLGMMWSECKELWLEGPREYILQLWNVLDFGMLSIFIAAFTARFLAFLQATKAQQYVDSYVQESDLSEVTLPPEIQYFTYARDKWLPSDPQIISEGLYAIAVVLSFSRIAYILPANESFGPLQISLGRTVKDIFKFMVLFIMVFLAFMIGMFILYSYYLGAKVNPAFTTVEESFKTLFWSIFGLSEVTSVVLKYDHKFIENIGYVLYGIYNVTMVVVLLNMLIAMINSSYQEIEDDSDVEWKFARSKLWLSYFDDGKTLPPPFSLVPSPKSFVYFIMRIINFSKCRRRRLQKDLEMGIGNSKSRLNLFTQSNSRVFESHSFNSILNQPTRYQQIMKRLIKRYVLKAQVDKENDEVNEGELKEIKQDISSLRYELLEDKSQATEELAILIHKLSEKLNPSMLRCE

Variants of: B1
Details: with TRPC3, G1U2U3

Effect of a mutation on the interaction, decreasing interaction:
R216A
R222A
E227A
